B1: GpH7-A5/GpH7-B3 variant A327_07I/GpL16-k0 (antibody, human IgG1, kappa)
heavy 1: not shown
heavy 2: not shown
light: DIVMTQSPLSLPVTPGEPASISCQASESLVHSNRNTYLHWYLQKPGQSPQLLIYKVSNRFSGVPDRFSGSGSGTDFTLKISRVEAEDVGVYYCSQNTHVPPTFGQGTKVEIERTVAAPSVFIFPPSDEQLKSGTASVVCLLNNFYPREAKVQWKVDNALQSGNSQESVTEQDSKDSTYSLSSTLTLSKADYEKHKVYACEVTHQGLSSPVTKSFNRGEC
notes: heterodimerized IgG1, mutation in one H chain only; also called He Ab
B2: GpH7-A5/GpH7-B3 variant A327_18N/GpL16-k0 (antibody, human IgG1, kappa)
heavy 1: not shown
heavy 2: not shown
light: B1 light
notes: as for B1
B3: GpH7-A5/GpH7-B3 variant N325_04F/GpL16-k0 (antibody, human IgG1, kappa)
heavy 1: not shown
heavy 2: not shown
light: B1 light
notes: as for B1
B4: GpH7-A5/GpH7-B3 variant K326_20W/GpL16-k0 (antibody, human IgG1, kappa)
heavy 1: not shown
heavy 2: not shown
light: B1 light
notes: as for B1
B5: GpH7-A5/GpH7-B3 variant N325_06M/GpL16-k0 (antibody, human IgG1, kappa)
heavy 1: not shown
heavy 2: not shown
light: B1 light
notes: as for B1
B6: GpH7-A5/GpH7-B3 variant N325_03V/GpL16-k0 (antibody, human IgG1, kappa)
heavy 1: not shown
heavy 2: not shown
light: B1 light
notes: as for B1
B7: GpH7-A5/GpH7-B3 variant K326_16H/GpL16-k0 (antibody, human IgG1, kappa)
heavy 1: not shown
heavy 2: not shown
light: B1 light
notes: as for B1
B8: GpH7-A5/GpH7-B3 variant K334_10E/GpL16-k0 (antibody, human IgG1, kappa)
heavy 1: not shown
heavy 2: not shown
light: B1 light
notes: as for B1
B9: GpH7-A5/GpH7-B3 variant L328_15Y/GpL16-k0 (antibody, human IgG1, kappa)
heavy 1: not shown
heavy 2: not shown
light: B1 light
notes: as for B1
B10: GpH7-A5/GpH7-B3 variant K326_15Y/GpL16-k0 (antibody, human IgG1, kappa)
heavy 1: not shown
heavy 2: not shown
light: B1 light
notes: as for B1
B11: GpH7-A5/GpH7-B3 variant L328_07I/GpL16-k0 (antibody, human IgG1, kappa)
heavy 1: not shown
heavy 2: not shown
light: B1 light
notes: as for B1
B12: GpH7-A5/GpH7-B3 variant N325_07I/GpL16-k0 (antibody, human IgG1, kappa)
heavy 1: not shown
heavy 2: not shown
light: B1 light
notes: as for B1
B13: GpH7-A5/GpH7-B3 variant S267_12R/GpL16-k0 (antibody, human IgG1, kappa)
heavy 1: not shown
heavy 2: not shown
light: B1 light
notes: as for B1
B14: GpH7-A5/GpH7-B3 variant K334_05P/GpL16-k0 (antibody, human IgG1, kappa)
heavy 1: not shown
heavy 2: not shown
light: B1 light
notes: as for B1
B15: GpH7-A5/GpH7-B3 variant K334_02A/GpL16-k0 (antibody, human IgG1, kappa)
heavy 1: not shown
heavy 2: not shown
light: B1 light
notes: as for B1
B16: GpH7-A5/GpH7-B3 variant L328_03V/GpL16-k0 (antibody, human IgG1, kappa)
heavy 1: not shown
heavy 2: not shown
light: B1 light
notes: as for B1
B17: GpH7-A5/GpH7-B3 variant A327_10E/GpL16-k0 (antibody, human IgG1, kappa)
heavy 1: not shown
heavy 2: not shown
light: B1 light
notes: as for B1
B18: GpH7-A5/GpH7-B3 variant L328_10E/GpL16-k0 (antibody, human IgG1, kappa)
heavy 1: not shown
heavy 2: not shown
light: B1 light
notes: as for B1

The first assay addresses T1, FcγRIIb (human, UniProt P31994 43-217).
T1 construct: extracellular domain; also called 2b
T1 sequence (looked up): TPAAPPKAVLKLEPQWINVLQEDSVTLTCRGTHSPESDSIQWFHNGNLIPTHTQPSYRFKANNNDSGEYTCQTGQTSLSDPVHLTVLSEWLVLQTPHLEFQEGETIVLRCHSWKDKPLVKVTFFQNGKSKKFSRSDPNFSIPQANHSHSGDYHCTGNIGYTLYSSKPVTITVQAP
As to the kind of experiment: SPR (Biacore), relative binding vs GpH7-A5/GpH7-B3/GpL16-k0. Here is the method:
(§1) The heterodimerized antibodies He Abs in which one of the H chains was introduced with an alteration were assayed for their binding activities to each activating FcγR and inhibitory FcγR according to the method described in Example 4. […] The activating FcγRs in FIGS. 26, 27, 28, and 29 are FcγRIa, FcγRIIa (R), FcγRIIa (H), and FcγRIIIa, respectively.
(§2) Analysis of interaction between objective antibody and the FcγR was carried out using Biacore T100 (GE Healthcare). HBS-EP+ (GE Healthcare) was used as the running buffer, and the measurement temperature was set to 25° C. Chips produced by immobilizing the antigen peptide by the amine coupling method to a Series S Sencor Chip CM5 (GE Healthcare), or alternatively, chips produced by allowing preliminarily biotinylated antigen peptides to interact with and immobilize onto a Series S Sensor Chip SA (certified) (GE Healthcare) were used. Antibodies of interest were captured onto an antigen peptide-immobilized chip, and allowed to interact to each FcγR diluted with running buffer. To regenerate and repeatedly use the chip, the antibodies captured on the chip were washed off by reacting 10 mM glycine-HCl, pH 1.5.
(In general: SPR reads the build-up and loss of mass on a sensor chip optically.)
Turning to B1, the He/Con_2b is 127 % of control He Ab (=100).

Consider B2, for which the He/Con_2b is 113 % of control He Ab (=100).

For the molecule B3, the He/Con_2b was 143 % of control He Ab (=100).

On to B4, for which the He/Con_2b is 148 % of control He Ab (=100).

Take B5: the He/Con_2b was 217 % of control He Ab (=100).

Regarding B6, the He/Con_2b is 111 % of control He Ab (=100).

In the case of B7, the He/Con_2b was 119 % of control He Ab (=100).

As for B8, the He/Con_2b was 114 % of control He Ab (=100).

Consider B9, for which the He/Con_2b is 193 % of control He Ab (=100).

Consider B10, for which the He/Con_2b was 159 % of control He Ab (=100).

In the case of B11, the He/Con_2b was 160 % of control He Ab (=100).

Consider B12, for which the He/Con_2b is 171 % of control He Ab (=100).

Turning to B13, the He/Con_2b was 11.3 % of control He Ab (=100).

With B14, the He/Con_2b is 105 % of control He Ab (=100).

B15: the He/Con_2b is 108 % of control He Ab (=100).

For the molecule B16, the He/Con_2b is 126 % of control He Ab (=100).

Consider B17, for which the He/Con_2b was 140 % of control He Ab (=100).

For B18, the He/Con_2b was 172 % of control He Ab (=100).

Another assay addresses T2, FcγRIIa H (human, UniProt P12318 34-217).
T2 construct: extracellular domain; also called FcγRIIa type H; 2aH
T2 sequence (looked up): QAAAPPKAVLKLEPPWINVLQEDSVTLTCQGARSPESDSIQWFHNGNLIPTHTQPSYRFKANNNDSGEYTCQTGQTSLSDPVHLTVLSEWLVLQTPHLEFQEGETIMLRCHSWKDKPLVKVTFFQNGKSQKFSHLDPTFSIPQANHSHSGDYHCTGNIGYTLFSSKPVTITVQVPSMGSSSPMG
The description is as above. Here is the method: as §1, §2
As for B1, the He/Con_2aH was 58.4 % of control He Ab (=100).

For the molecule B2, the He/Con_2aH is 66.8 % of control He Ab (=100).

In the case of B3, the He/Con_2aH was 33.4 % of control He Ab (=100).

As to B4, the He/Con_2aH is 83.3 % of control He Ab (=100).

As for B5, the He/Con_2aH is 48.2 % of control He Ab (=100).

As for B6, the He/Con_2aH is 45.2 % of control He Ab (=100).

In the case of B7, the He/Con_2aH is 97.9 % of control He Ab (=100).

As for B8, the He/Con_2aH was 98.2 % of control He Ab (=100).

Consider B9, for which the He/Con_2aH was 90 % of control He Ab (=100).

Turning to B10, the He/Con_2aH was 98.3 % of control He Ab (=100).

For the molecule B11, the He/Con_2aH was 93.9 % of control He Ab (=100).

Turning to B12, the He/Con_2aH was 38.1 % of control He Ab (=100).

Take B14: the He/Con_2aH is 97.6 % of control He Ab (=100).

Take B15: the He/Con_2aH is 97 % of control He Ab (=100).

As to B16, the He/Con_2aH is 97.8 % of control He Ab (=100).

On to B17, for which the He/Con_2aH is 91.3 % of control He Ab (=100).

Regarding B18, the He/Con_2aH was 55.5 % of control He Ab (=100).

The record behind these values is patent US20180155451A1 (published 2018).
